One molecule from patent CN106902750A can be followed below.

Assay [1] has as its target Myc-GST融合蛋白(Myc标签与谷胱甘肽融合的蛋白). Kind of assay: indirect ELISA, Myc-GST coated at 5 μg/mL, HRP anti-His secondary antibody; heat test at 70℃ for 30 min. A general note: In an ELISA, binding on a coated surface is turned into a signal by an enzyme label.
Assay [2] addresses Myc-GST融合蛋白(Myc标签与谷胱甘肽融合的蛋白). Kind of assay: indirect ELISA, Myc-GST coated at 5 μg/mL, HRP anti-His secondary antibody; heat test at 80℃ for 30 min.
In assay [3] the target is Myc-GST融合蛋白(Myc标签与谷胱甘肽融合的蛋白). Kind of assay: indirect ELISA, Myc-GST coated at 5 μg/mL, HRP anti-His secondary antibody; heat test at 90℃ for 30 min.

B1: 抗c-Myc标签单域重链抗体 (VHH, not shown: small tags and cut ends)
VHH: QLQLVESGGGLVQPGESLTLTCVASGGTLENWDIAWFRQAPGKEREGVAYFSSDGIRNYGDSMRGRFKISRDNAKNTAWLQMNRLSVEDTSTYYCAAKERVGRAWRNDGLYRYWGQGTQVTVSS
Turning to B1, the OD450 in assay [1] worked out at 1.5 OD450; in assay [2], 1.4 OD450; in assay [3] it was 1.2 OD450.
